In article doi:10.1101/789552 (bioRxiv, 2019):
Where two headings read alike, the source gives them in different places.

B1: CAP2 monomer (endogenous, human hippocampus) (natural protein, human (endogenous in hippocampus), UniProt P40123 1-477, looked up)
chain: MANMQGLVERLERAVSRLESLSAESHRPPGNCGEVNGVIAGVAPSVEAFDKLMDSMVAEFLKNSRILAGDVETHAEMVHSAFQAQRAFLLMASQYQQPHENDVAALLKPISEKIQEIQTFRERNRGSNMFNHLSAVSESIPALGWIAVSPKPGPYVKEMNDAATFYTNRVLKDYKHSDLRHVDWVKSYLNIWSELQAYIKEHHTTGLTWSKTGPVASTVSAFSVLSSGPGLPPPPPPLPPPGPPPLFENEGKKEESSPSRSALFAQLNQGEAITKGLRHVTDDQKTYKNPSLRAQGGQTQSPTKSHTPSPTSPKSYPSQKHAPVLELEGKKWRVEYQEDRNDLVISETELKQVAYIFKCEKSTIQIKGKVNSIIIDNCKKLGLVFDNVVGIVEVINSQDIQIQVMGRVPTISINKTEGCHIYLSEDALDCEIVSAKSSEMNILIPQDGDYREFPIPEQFKTAWDGSKLITEPAEIMA
B2: CAP2 (endogenous, mouse hippocampus) (natural protein, mouse (endogenous in hippocampus), UniProt Q9CYT6 1-476, looked up)
chain: MTDMAGLMERLERAVIRLEQLSAGLDGPPRGCGEVNGVNGGVAPSVEAFDKLINSMVAEFLKNSRVLAGDVETHAEMVHGAFQAQRAFLLMVSQYQQPQENEVAVLLKPISEKIQEIQTFRERNRGSNMFNHLSAVSESIAALGWIAVSPKPGPYVKEMNDAATFYTNRVLKDYKHSDLRHVDWVRSYLNIWSELQAYIREHHTTGLTWSKTGPVASTASAFSILSSGPGLPPPPPPPPPPGPPPPFENEDKKEEPSPSRSALFAQLNQGEAITKGLRHVTDDKKTYKNPSLRAQGQIRSPTKTHTPSPTSPKSNSPQKHTPVLELEGKKWRVEYQEDRNDLVISETELKQVAYIFKCDKSTLQIKGKVNSITVDNCKKFGLVFDHVVGIVEVINSKDIQIQVMGRVPTISINKTEGCHLYLSEDALDCEIVSAKSSEMNVLVPQDDDYREFPIPEQFKTIWDGSKLVTEPAEIMA
B3: Myc-CAP2 (natural protein, UniProt Q9CYT6 1-476, looked up)
chain: B2 chain
B4: Streptag-CAP2 (natural protein, UniProt Q9CYT6 1-476, looked up)
chain: B2 chain
B5: CAP2 (endogenous, rat hippocampus and primary hippocampal neurons) (natural protein, UniProt P52481 1-477, looked up)
chain: MADMLGLMQRLEFAVSRLERLSSGLHEPPGGCGEVNSLSRGIVAPSVEAFDKLINSMVAEFLKNSRVLAGDVETHAEMVHGAFQAQRAFLLMVSQHQQPQENEVAVLLKPISEKIQEIQTFRERNRGSDMFNHLSAVSESIAALGWIAVSPKPGPYVKEMNDAATFYTNRVLRDYKHSDLRHVDWVRSYLKIWSELQAYIKEHHTTGLTWSKTGPVASTASAFSILSSGPGLPPPPPPPPPPGPPPPFENEGGKEEPSPSRSALFAQLNQGEAITKGLRHVTDDKKIYKNPSLRAQGQIRSPTKTRTPSPTSSKSNSPQKHAPVLELEGKKWRVEYQEDRNDLVISETELKQVAYIFKCDKSTLQIKGKVNSITVDNCKKFGLVFDHVVGIVEVINSKDIQIQVMGRVPTISINKTEGCHLYLSKDALDCEIVSAKSSEMNVLVPQGDDYREFPIPEQFKTIWDGSKLITEPAEIMA

Columns and labels:
Assay in all cases: non-reducing SDS-PAGE with Western blot
[1] = biological target: the molecule itself
[2] = biological target: the molecule itself; remark: listed apart in the source
[3] = biological target: the molecule itself; remark: listed apart in the source

Protein | stoichiometry N [1] | further results
B1 | 2 | 
B2 | 2 | 
B3 |  | stoichiometry N [2]: 2
B4 |  | stoichiometry N [3]: 2
B5 | 2 | 
